Results taken from patent US20180327500A1 (SYMPHOGEN A S, published 2018).
Each block holds one binder with its values, some of them ahead of it.

Experiments:
Experiment in all cases: flow cytometry on transfected HEK293 cells;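 also: antibodies applied at 50 µg/ml, binding called specific when fluorescence exceeds the mean signal on a negative control chicken or mouse MET construct plus four SD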
Mouse Blade 1-6 = target: T1, Mouse Blade 1-6
T1 construct: human/mouse chimera on transfected HEK293 cells; also called AA 25-479
Procedure: (§1) Cut-off values defined as the average fluorescence signal of all antibodies tested at 50 μg/ml to the negative control chicken or mouse MET construct+four standard deviations were employed to discriminate background binding from specific binding for the domain exchange or blade exchange constructs.
T1 MET ECD-SV5-GPI fusion: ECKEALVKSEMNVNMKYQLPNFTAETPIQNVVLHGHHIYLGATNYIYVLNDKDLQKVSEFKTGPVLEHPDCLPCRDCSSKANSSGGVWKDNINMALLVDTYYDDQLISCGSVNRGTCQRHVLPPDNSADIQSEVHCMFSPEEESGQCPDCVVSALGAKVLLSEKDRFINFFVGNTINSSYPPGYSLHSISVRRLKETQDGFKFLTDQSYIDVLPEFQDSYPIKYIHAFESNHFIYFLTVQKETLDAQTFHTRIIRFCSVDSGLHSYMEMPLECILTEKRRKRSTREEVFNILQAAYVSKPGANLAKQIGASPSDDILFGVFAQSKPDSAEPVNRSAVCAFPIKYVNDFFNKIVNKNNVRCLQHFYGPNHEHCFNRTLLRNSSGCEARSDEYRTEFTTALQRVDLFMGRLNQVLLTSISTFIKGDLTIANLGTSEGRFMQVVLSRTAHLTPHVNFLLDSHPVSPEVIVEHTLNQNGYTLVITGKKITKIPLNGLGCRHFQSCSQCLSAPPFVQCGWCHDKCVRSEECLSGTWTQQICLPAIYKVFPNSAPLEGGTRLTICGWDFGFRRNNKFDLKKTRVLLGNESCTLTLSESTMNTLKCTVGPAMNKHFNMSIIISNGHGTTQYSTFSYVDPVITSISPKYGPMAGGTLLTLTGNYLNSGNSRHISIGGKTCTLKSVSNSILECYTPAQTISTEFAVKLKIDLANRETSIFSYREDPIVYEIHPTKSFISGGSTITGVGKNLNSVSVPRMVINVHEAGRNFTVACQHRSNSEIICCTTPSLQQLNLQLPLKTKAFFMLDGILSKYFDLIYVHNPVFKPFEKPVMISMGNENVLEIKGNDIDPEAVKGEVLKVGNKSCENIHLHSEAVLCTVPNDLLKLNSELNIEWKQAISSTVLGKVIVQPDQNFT

Mouse blade 2 = target: T2, Mouse blade 2
T2 construct: human/mouse chimera on transfected HEK293 cells; also called Mouse blade 2-IPT4
Procedure: as §1
T2 MET ECD-SV5-GPI fusion: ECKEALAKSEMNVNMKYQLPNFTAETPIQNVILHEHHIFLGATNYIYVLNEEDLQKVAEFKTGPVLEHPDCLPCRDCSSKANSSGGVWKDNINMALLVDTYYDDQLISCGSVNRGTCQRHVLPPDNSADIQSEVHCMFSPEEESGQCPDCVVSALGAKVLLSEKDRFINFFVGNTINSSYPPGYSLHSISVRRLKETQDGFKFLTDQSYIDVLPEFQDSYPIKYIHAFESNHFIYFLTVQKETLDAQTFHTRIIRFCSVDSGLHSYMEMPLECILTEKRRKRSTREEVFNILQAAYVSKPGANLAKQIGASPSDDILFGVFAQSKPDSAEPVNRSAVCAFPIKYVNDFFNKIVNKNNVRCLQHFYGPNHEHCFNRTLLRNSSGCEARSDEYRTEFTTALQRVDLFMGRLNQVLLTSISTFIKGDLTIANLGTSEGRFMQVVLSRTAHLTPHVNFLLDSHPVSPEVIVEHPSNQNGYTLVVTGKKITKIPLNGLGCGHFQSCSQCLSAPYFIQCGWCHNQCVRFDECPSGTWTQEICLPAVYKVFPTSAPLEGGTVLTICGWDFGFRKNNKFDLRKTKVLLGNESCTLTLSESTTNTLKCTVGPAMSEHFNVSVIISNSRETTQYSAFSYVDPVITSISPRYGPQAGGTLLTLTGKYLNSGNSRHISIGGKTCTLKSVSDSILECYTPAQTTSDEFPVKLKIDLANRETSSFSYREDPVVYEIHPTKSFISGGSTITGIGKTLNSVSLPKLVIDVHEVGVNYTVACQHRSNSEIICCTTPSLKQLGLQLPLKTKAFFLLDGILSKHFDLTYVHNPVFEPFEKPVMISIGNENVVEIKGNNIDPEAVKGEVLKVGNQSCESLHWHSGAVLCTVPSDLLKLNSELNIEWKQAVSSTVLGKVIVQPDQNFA

Mouse Blade 1-4 = target: T3, Mouse Blade 1-4
T3 construct: human/mouse chimera on transfected HEK293 cells; also called AA 25-295
Procedure: as §1
T3 MET ECD-SV5-GPI fusion: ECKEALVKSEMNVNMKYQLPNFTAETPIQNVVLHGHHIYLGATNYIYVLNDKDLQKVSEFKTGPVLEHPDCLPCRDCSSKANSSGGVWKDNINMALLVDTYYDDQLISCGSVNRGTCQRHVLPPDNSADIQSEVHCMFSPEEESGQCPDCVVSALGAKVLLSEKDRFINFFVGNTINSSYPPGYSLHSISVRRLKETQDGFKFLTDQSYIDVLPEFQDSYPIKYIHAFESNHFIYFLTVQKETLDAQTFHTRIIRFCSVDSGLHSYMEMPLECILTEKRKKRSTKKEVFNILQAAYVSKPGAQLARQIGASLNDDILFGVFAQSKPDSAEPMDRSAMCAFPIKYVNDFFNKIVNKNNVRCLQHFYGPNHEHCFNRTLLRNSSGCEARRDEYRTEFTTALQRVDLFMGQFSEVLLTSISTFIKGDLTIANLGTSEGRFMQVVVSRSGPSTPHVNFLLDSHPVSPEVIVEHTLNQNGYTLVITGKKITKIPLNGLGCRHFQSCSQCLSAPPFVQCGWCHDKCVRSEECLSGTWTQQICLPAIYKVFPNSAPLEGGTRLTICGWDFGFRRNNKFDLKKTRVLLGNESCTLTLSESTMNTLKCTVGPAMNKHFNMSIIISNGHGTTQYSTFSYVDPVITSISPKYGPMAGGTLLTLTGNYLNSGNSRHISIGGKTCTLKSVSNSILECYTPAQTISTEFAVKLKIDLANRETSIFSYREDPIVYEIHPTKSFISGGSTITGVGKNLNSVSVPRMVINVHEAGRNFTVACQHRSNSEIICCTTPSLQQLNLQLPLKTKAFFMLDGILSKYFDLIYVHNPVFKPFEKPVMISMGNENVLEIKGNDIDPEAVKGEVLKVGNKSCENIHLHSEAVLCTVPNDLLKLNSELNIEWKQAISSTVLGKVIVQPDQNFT

binding result (Mouse Blade 1-6): no binding (tested: 50 µg/ml)
binding result (Mouse blade 2): no binding (tested: 50 µg/ml)
binding result (Mouse Blade 1-4): no binding (tested: 50 µg/ml)
B1: humanized antibody 9006 (antibody, human IgG1, kappa, V domains shown)
VH: QVQLVQSGSELKKPGASVKVSCKASGYTFTNFRMNWVKQAPGQGLKWMGWINTYTGEPTYVDDLKGRFVFSLDTSVSTAYLQISSLKAEDTAVYYCARKGIARAMDYWGQGTTVTVSS
VL: DIVMTQSPDSLAVSLGERATINCKSSQSLLDSGNQKNYLAWYQQKPGQPPKLLIFGASTRESGVPDRFSGSGSGTDFTLTISSLQAEDVAVYYCQNDHSYPYTFGQGTKLEIKR
notes: also called Hu9006; hu9006

binding result (Mouse Blade 1-6): no binding (tested: 50 µg/ml)
binding result (Mouse blade 2): no binding (tested: 50 µg/ml)
binding result (Mouse Blade 1-4): no binding (tested: 50 µg/ml)
B2: humanized antibody 9338 (antibody, human IgG1, kappa, V domains shown)
VH: QVQLVQSGAEVKKPGSSVKVSCKASGYTFTSYWMHWVRQAPGQGLEWMGYINPSSGHIENNQKFKDRVTITADKSTSTAYMELSSLRSEDTAVYYCARGRFAYWGQGTLVTVSS
VL: EIVLTQSPATLSLSPGERATLSCSASSSVSSGYLYWYQQKPGQAPRLLIYSTSNLASGIPARFSGSGSGTDFTLTISSLEPEDFAVYYCHQWSSYPFTFGSGTKLEIKR
notes: also called Hu9338; hu9338
